# In patent US20240166765A1 (ICONIC THERAPEUTICS, published 2024):
# Biological target: Relipidated TF (Tissue Factor) (UniProt P13726 33-295, limits assumed)
# Experiment: cell-based or functional assay
Binder,"% ETP, Ab 10 nM","% Peak IIa, Ab 10 nM","% Peak IIa, Ab 50 nM","% Peak IIa, Ab 100 nM","% ttPeak, Ab 10 nM","% ttPeak, Ab 50 nM","% ttPeak, Ab 100 nM","ETP [nM · min], Ab 10 nM","Lag Time [min], Ab 10 nM","Lag Time [min], Ab 50 nM","Lag Time [min], Ab 100 nM","Peak IIa [nM], Ab 10 nM","Peak IIa [nM], Ab 50 nM","Peak IIa [nM], Ab 100 nM","ttPeak [min], Ab 10 nM","ttPeak [min], Ab 50 nM","ttPeak [min], Ab 100 nM","ETP [nM · min], Ab 50 nM","ETP [nM · min], Ab 100 nM",also measured
"1F (antibody, human IgG1, V domains shown) VH: EVQLLESGGGLVQPGGSLRLSCAASGFTFSDYAMGWVRQAPGKGLEWVSTISGSGGLTYYADSVKGRFTISRDNSKNTLYLQMNSLRAEDTAVYYCAKAPYGYYMDVWGKGTTVTVSS VL: not shown",86%,47%,9%,8%,89%,347%,419%,1740 nM·min,8.2 min,25.6 min,31 min,155 nM,31 nM,25 nM,14.9 min,35.3 min,41 min,–,–,–
"25A (antibody, human IgG1, V domains shown) VH: QVQLVQSGAEVKKPGASVKVSCKASGYTFDVYGISWVRQAPGQGLEWMGWIAPYNGNTNYAQKLQGRVTMTTDTSTSTAYMELRSLRSDDTAVYYCARDAGTYSPFGYGMDVWGQGTTVTVSS VL: DIQMTQSPSTLSASVGDRVTITCRASQSISSWLAWYQQKPGKAPKLLIYKASSLESGVPSRFSGSGSGTEFTLTISSLQPDDFATYYCQQFQSLPPFTFGGGTKVEIK",–,97%,95%,95%,4%,9%,9%,2110 nM·min,5 min,5.2 min,5.2 min,322 nM,317 nM,317 nM,8.2 min,8.6 min,8.6 min,2120 nM·min,2130 nM·min,–
"29E (antibody, human IgG1, V domains shown) VH: QVQLVESGGGVVQPGRSLRLSCAASGFTFRSYGMHWVRQAPGKGLEWVAVITYDGINKYYADSVEGRFTISRDNSKNTLYLQMNSLRAEDTAVYYCARDGVYYGVYDYWGQGTLVTVSS VL: not shown",95%,71%,29%,24%,48%,186%,232%,1930 nM·min,7 min,14.1 min,17.1 min,235 nM,95 nM,81 nM,11.7 min,22.6 min,26.2 min,1360 nM·min,1260 nM·min,"% ETP, Ab 50 nM: 67%; % ETP, Ab 100 nM: 62%"
